B1: 538 (protein)
chain: LDNGLARTPTMGWLHWERFMCNLDCQEEPDSCISEKLFMEMAERMVSEGWKDAGYEYLCIDDCWMAPQRDSEGRLQADPQRFPHGIRQLANHVHSKGLKLGIYADVGNKTCAGFPGSFGYYDIDAQTFADWGVDLLKFDGCYCDSLENLADGYKHMSLALNRTGRSIVYSCEWPLYMWPFQKPNYTEIRQYCNHWRNFADIDDSWASIKSILDWTSRNQERIVDVAGPGGWNDPDMLVIGNFGLSWDQQVTQMALWAIMAAPLFMSNDLRHISPQAKALLQDKDVICINQDPLGKQGYQLRKGDNFEVWERPLSGDAWAVAIINRQEIGGPRSYTIPVASLGKGVACNPACFITQLLPVKRQLGFYNWTSRLKSHINPTGTVLLQLENTMQMSLKDLL
modifications: Synthetic Polypeptide sequence of Variant No. 538 of mature Human GLA
B2: 544 (protein)
chain: LDNGLARTPTMGWLHWERFMCNLDCQEEPDSCISEKLFMEMAERMVSEGWKDAGYEYLCIDDCWMAPQRDSEGRLQADPQRFPHGIRQLANHVHSKGLKLGIYADVGNKTCAGFPGSFGYYDIDAQTFADWGVDLLKFDGCYCDSLENLADGYKHMSLALNRTGRSIVYSCEWPLYMWPFQKPNYTEIRQYCNHWRNFADIDDSWASIKSILDWTSRNQERIVDVAGPGGWNDPDMLVIGNFGLSWDQQVTQMALWAIMAAPLFMSNDLRHISPQAKALLQVKDVIAINQDPLGKQGYQLRKGDNFEVWERPLSGDAWAVAIINRQEIGGPRSYTIPVASLGKGVACNPACFITQLLPVKRQLGFYNWTSRLKSHINPTGTVLLQLENTMQMSLKDLL
modifications: Synthetic Polypeptide sequence of Variant No. 544 of mature Human GLA
B3: 539 (protein)
chain: LDNGLARTPTMGWLHWERFMCNLDCQEEPDSCISEKLFMEMAERMVSEGWKDAGYEYLCIDDCWMAPQRDSEGRLQADPQRFPHGIRQLANHVHSKGLKLGIYADVGNKTCAGFPGSFGYYDIDAQTFADWGVDLLKFDGCYCDSLENLADGYKHMSLALNRTGRSIVYSCEWPLYMWPFQKPNYTEIRQYCNHWRNFADIDDSWASIKSILDWTSRNQERIVDVAGPGGWNDPDMLVIGNFGLSWDQQVTQMALWAIMAAPLFMSNDLRHISPQAKALLQDKDVIHINQDPLGKQGYQLRKGDNFEVWERPLSGDAWAVAIINRQEIGGPRSYTIPVASLGKGVACNPACFITQLLPVKRQLGFYNWTSRLKSHINPTGTVLLQLENTMQMSLKDLL
modifications: Synthetic Polypeptide sequence of Variant No. 539 of mature Human GLA
B4: 541 (protein)
chain: LDNGLARTPTMGWLHWERFMCNLDCQEEPDSCISEKLFMEMAERMVSEGWKDAGYEYLCIDDCWMAPQRDSEGRLQADPQRFPHGIRQLANHVHSKGLKLGIYADVGNKTCAGFPGSFGYYDIDAQTFADWGVDLLKFDGCYCDSLENLADGYKHMSLALNRTGRSIVYSCEWPLYMWPFQKPNYTEIRQYCNHWRNFADIDDSWASIKSILDWTSRNQERIVDVAGPGGWNDPDMLVIGNFGLSWDQQVTQMALWAIMAAPLFMSNDLRHISPQAKALLQAKDVIAINQDPLGKQGYQLRKGDNFEVWERPLSGDAWAVAIINRQEIGGPRSYTIPVASLGKGVACNPACFITQLLPVKRQLGFYNWTSRLKSHINPTGTVLLQLENTMQMSLKDLL
modifications: Synthetic Polypeptide sequence of Variant No. 541 of mature Human GLA
B5: 543 (protein)
chain: LDNGLARTPTMGWLHWERFMCNLDCQEEPDSCISEKLFMEMAERMVSEGWKDAGYEYLCIDDCWMAPQRDSEGRLQADPQRFPHGIRQLANHVHSKGLKLGIYADVGNKTCAGFPGSFGYYDIDAQTFADWGVDLLKFDGCYCDSLENLADGYKHMSLALNRTGRSIVYSCEWPLYMWPFQKPNYTEIRQYCNHWRNFADIDDSWASIKSILDWTSRNQERIVDVAGPGGWNDPDMLVIGNFGLSWDQQVTQMALWAIMAAPLFMSNDLRHISPQAKALLQMKDVIAINQDPLGKQGYQLRKGDNFEVWERPLSGDAWAVAIINRQEIGGPRSYTIPVASLGKGVACNPACFITQLLPVKRQLGFYNWTSRLKSHINPTGTVLLQLENTMQMSLKDLL
modifications: Synthetic Polypeptide sequence of Variant No. 543 of mature Human GLA
B6: 516 (protein)
chain: LENGLARTPTMGWLHWERFMCNLDCQEEPDSCISEKLFMEMAERMVSEGWKDAGYEYLCIDDCWMAPQRDSEGRLQADPQRFPHGIRQLANHVHSKGLKLGIYADVGNKTCAGFPGSFGYYDIDAQTFADWGVDLLKFDGCYCDSLENLADGYKHMSLALNRTGRSIVYSCEWPLYMWPFQKPNYTEIRQYCNHWRNFADIDDSWASIKSILDWTSRNQERIVDVAGPGGWNDPDMLVIGNFGLSWDQQVTQMALWAIMAAPLFMSNDLRHISPQAKALLQDKDVIAINQDPLGKQGYQLRKGDNFEVWERPLSGDAWAVAIINRGEIGGPRSYTIPVASLGKGVACNPACFITQLLPVKRQLGFYNWTSRLKSHINPTGTVLLQLENTMQMSLKDLL
modifications: Synthetic Polypeptide sequence of Variant No. 516 of mature Human GLA
B7: 542 (protein)
chain: LDNGLARTPTMGWLHWERFMCNLDCQEEPDSCISEKLFMEMAERMVSEGWKDAGYEYLCIDDCWMAPQRDSEGRLQADPQRFPHGIRQLANHVHSKGLKLGIYADVGNKTCAGFPGSFGYYDIDAQTFADWGVDLLKFDGCYCDSLENLADGYKHMSLALNRTGRSIVYSCEWPLYMWPFQKPNYTEIRQYCNHWRNFADIDDSWASIKSILDWTSRNQERIVDVAGPGGWNDPDMLVIGNFGLSWDQQVTQMALWAIMAAPLFMSNDLRHISPQAKALLQGKDVIAINQDPLGKQGYQLRKGDNFEVWERPLSGDAWAVAIINRQEIGGPRSYTIPVASLGKGVACNPACFITQLLPVKRQLGFYNWTSRLKSHINPTGTVLLQLENTMQMSLKDLL
modifications: Synthetic Polypeptide sequence of Variant No. 542 of mature Human GLA
B8: 540 (protein)
chain: LDNGLARTPTMGWLHWERFMCNLDCQEEPDSCISEKLFMEMAERMVSEGWKDAGYEYLCIDDCWMAPQRDSEGRLQADPQRFPHGIRQLANHVHSKGLKLGIYADVGNKTCAGFPGSFGYYDIDAQTFADWGVDLLKFDGCYCDSLENLADGYKHMSLALNRTGRSIVYSCEWPLYMWPFQKPNYTEIRQYCNHWRNFADIDDSWASIKSILDWTSRNQERIVDVAGPGGWNDPDMLVIGNFGLSWDQQVTQMALWAIMAAPLFMSNDLRHISPQAKALLQDKDVIMINQDPLGKQGYQLRKGDNFEVWERPLSGDAWAVAIINRQEIGGPRSYTIPVASLGKGVACNPACFITQLLPVKRQLGFYNWTSRLKSHINPTGTVLLQLENTMQMSLKDLL
modifications: Synthetic Polypeptide sequence of Variant No. 540 of mature Human GLA

What was measured:
Type in all cases: biochemical
[1] = HTP-analysis of yeast culture supernatants, no challenge (MUGal hydrolysis); conditions: activity of the variant/activity of Rd3BB (SEQ ID NO: 13)
Procedure, shortened: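 GLA variants were expressed in INVSc1 yeast grown in SD-Ura broth with glucose at 30° C., and culture supernatants were collected after 66-84 h. Supernatant was mixed with McIlvaine buffer pH 4.8 and MUGal (2 mM stock) in 50 mM citrate, 200 mM KCl, pH 4.6, incubated at 37° C. for 30-180 minutes, then quenched with sodium carbonate.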

[2] = HTP-analysis of supernatants pretreated with base (MUGal hydrolysis); conditions: activity of the variant/activity of Rd3BB (SEQ ID NO: 13); challenge at pH 9.7
Procedure, shortened: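 Fluorescence of released 4-MU (Ex 355 nm, Em 448 nm) after carbonate quench reports MUGal hydrolysis by GLA variants secreted from INVSc1 yeast. Before the acidic (pH 4.3-4.8) 30-180 min reaction at 37° C, supernatants had been pre-incubated at pH 7.0-9.7 for 1-18 h at 37° C.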

[3] = HTP-analysis of supernatants pretreated with acid (MUGal hydrolysis); conditions: activity of the variant/activity of Rd3BB (SEQ ID NO: 13); challenge at pH 3.7
Procedure, shortened: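 MUGal hydrolysis was tracked by fluorescence (Ex 355 nm, Em 448 nm) after a 30-180 min reaction at 37° C. in pH 4.8 McIlvaine/citrate buffer, stopped with 1 M sodium carbonate. Beforehand, yeast (INVSc1) culture supernatants carrying GLA variants were held 1-3 h at 37° C. in acidic McIlvaine buffer, pH 3.3-4.3.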

Row | Molecule | Relative Activity of GLA Variants After No Challenge (NC) [1] | Relative Activity of GLA Variants After Challenge at pH 9.7 [2] | Relative Activity of GLA Variants After Challenge at pH 3.7 [3]
1 | B1 | + (+ = 1.5 to 5 relative activity over Rd3BB (SEQ ID NO: 13)) | + (+ = 1.5 to 5 relative activity over Rd3BB (SEQ ID NO: 13)) | + (+ = 1.5 to 5 relative activity over Rd3BB (SEQ ID NO: 13))
2 | B2 | + (+ = 1.5 to 5 relative activity over Rd3BB (SEQ ID NO: 13)) | + (+ = 1.5 to 5 relative activity over Rd3BB (SEQ ID NO: 13)) | + (+ = 1.5 to 5 relative activity over Rd3BB (SEQ ID NO: 13))
3 | B3 | + (+ = 1.5 to 5 relative activity over Rd3BB (SEQ ID NO: 13)) | ++ (++ = >5 to 10 relative activity over Rd3BB (SEQ ID NO: 13)) | + (+ = 1.5 to 5 relative activity over Rd3BB (SEQ ID NO: 13))
4 | B4 | + (+ = 1.5 to 5 relative activity over Rd3BB (SEQ ID NO: 13)) | ++ (++ = >5 to 10 relative activity over Rd3BB (SEQ ID NO: 13)) | + (+ = 1.5 to 5 relative activity over Rd3BB (SEQ ID NO: 13))
5 | B5 | + (+ = 1.5 to 5 relative activity over Rd3BB (SEQ ID NO: 13)) | + (+ = 1.5 to 5 relative activity over Rd3BB (SEQ ID NO: 13)) | + (+ = 1.5 to 5 relative activity over Rd3BB (SEQ ID NO: 13))
6 | B6 | + (+ = 1.5 to 5 relative activity over Rd3BB (SEQ ID NO: 13)) | + (+ = 1.5 to 5 relative activity over Rd3BB (SEQ ID NO: 13)) | +++ (+++ = >10 relative activity over Rd3BB (SEQ ID NO: 13))
7 | B7 | + (+ = 1.5 to 5 relative activity over Rd3BB (SEQ ID NO: 13)) | ++ (++ = >5 to 10 relative activity over Rd3BB (SEQ ID NO: 13)) | + (+ = 1.5 to 5 relative activity over Rd3BB (SEQ ID NO: 13))
8 | B8 | + (+ = 1.5 to 5 relative activity over Rd3BB (SEQ ID NO: 13)) | ++ (++ = >5 to 10 relative activity over Rd3BB (SEQ ID NO: 13)) | + (+ = 1.5 to 5 relative activity over Rd3BB (SEQ ID NO: 13))

From US11278600B2, “Human alpha-galactosidase variants” (Codexis, Inc., priority 2014, dated 2022)
